Laboratory results published in publication PMC9352680, “A comprehensive thermodynamic model for RNA binding by the Saccharomyces cerevisiae Pumilio protein PUF4”.
Where a chain is given by its changes, count along the chain named. Names may count otherwise.

Target: T1, PUF4 RNA-binding domain (Saccharomyces cerevisiae, UniProt P25339 537-888)
T1 sequence: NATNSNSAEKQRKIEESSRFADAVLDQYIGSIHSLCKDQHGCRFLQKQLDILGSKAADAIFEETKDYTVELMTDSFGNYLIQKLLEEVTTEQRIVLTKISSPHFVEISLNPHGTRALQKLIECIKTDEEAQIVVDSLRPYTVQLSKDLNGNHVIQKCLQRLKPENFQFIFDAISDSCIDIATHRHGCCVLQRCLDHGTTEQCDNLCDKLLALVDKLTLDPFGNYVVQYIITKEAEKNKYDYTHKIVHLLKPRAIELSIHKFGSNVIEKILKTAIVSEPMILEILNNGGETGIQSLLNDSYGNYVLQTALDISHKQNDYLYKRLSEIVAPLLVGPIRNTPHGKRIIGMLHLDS
Experiment: Mg; RNA-MaP; 20 mM Na-HEPES pH 7.4, 30 mM KOAc, 0.75 mM MgCl2, 0.1% Tween-20, 5% glycerol, 0.1 mg/mL BSA, 2 mM DTT; 25 C; 0.0125-409.6 nM protein
Settings: tags: N-His6-TEV cleaved; C-SNAP kept, Cy3B-labelled; label: tethered on chip by stalled RNA polymerase

B1: Id_ii_S4_P3E.4_K3.3_C3.2_H3.3_A3.1_F3.1_T3.2_[A10C] (ssRNA)
RNA: UUUGACAACUGAUCGUUCUUUCUCUACACUAUAUCUUCUUUCUCGAUCAGUUGUCUUU
  Kd: 926 nM

B2: Id_ii_S4_P4E.2_K4.1_C4.2_[C-2G]_[T-1C]_H4.1_A4.1_F4.1_T4.2_[G10C]_[T11C] (ssRNA)
RNA: UUUGACAACUGAUCGUUCUUUCUGCUGUAUAUUACCUUCUUUCUCGAUCAGUUGUCUUU
  Kd: 1.35 nM

B3: Id_ii_S4_P4E.2_K4.1_C4.2_[C-2G]_[T-1C]_H4.1_A4.1_F4.1_T4.2_[G10T] (ssRNA)
RNA: B2 RNA with C35U, C36U
  Kd: 0.295 nM

B4: Id_ii_S4_P4E.2_K4.1_C4.2_[C-2G]_H4.1_A4.1_F4.1_T4.2_[G10C]_[T11C] (ssRNA)
RNA: B2 RNA with C25U
  Kd: 1.76 nM

B5: Id_ii_S4_P4E.2_K4.1_C4.2_[C-2G]_H4.1_A4.1_F4.1_T4.2_[G10T]_[T11A] (ssRNA)
RNA: B2 RNA with C25U, C35U, C36A
  Kd: 0.515 nM

## UCUCUUUCUAUCAUUAUCUCUU (ssRNA) [Ib_S1_P5E.1_K5.1_C5.1_H5.1_[G2C]_A5.1_[T6C]_F5.1_T5.1]
  Kd: > 2300 nM

B6: Id_ii_S4_P4E.2_K4.1_C4.2_[C-2T]_[T-1C]_H4.1_A4.1_F4.1_T4.2_[G10T]_[T11C] (ssRNA)
RNA: B2 RNA with G24U, C35U
  Kd: 0.319 nM

B7: Id_ii_S4_P4E.2_K4.1_C4.2_[C-2T]_[T-1A]_H4.1_A4.1_F4.1_T4.2_[G10T]_[T11C] (ssRNA)
RNA: B2 RNA with G24U, C25A, C35U
  Kd: 0.343 nM

B8: Id_ii_S4_P4E.2_K4.1_C4.2_[C-2T]_[T-1A]_H4.1_A4.1_F4.1_T4.2_[G10A]_[T11C] (ssRNA)
RNA: B2 RNA with G24U, C25A, C35A
  Kd: 1.15 nM

B9: Id_ii_S4_P4E.2_K4.1_C4.2_[C-2T]_[T-1A]_H4.1_A4.1_F4.1_T4.2_[T11C] (ssRNA)
RNA: B2 RNA with G24U, C25A, C35G
  Kd: 0.368 nM

B10: Id_ii_S4_P4E.2_K4.1_C4.2_[C-2T]_[T-1A]_H4.1_A4.1_F4.1_T4.2 (ssRNA)
RNA: B2 RNA with G24U, C25A, C35G, C36U
  Kd: 0.659 nM

B11: Id_ii_S4_P4E.2_K4.1_C4.2_[C-2T]_H4.1_A4.1_F4.1_T4.2_[G10T]_[T11G] (ssRNA)
RNA: B2 RNA with G24U, C25U, C35U, C36G
  Kd: 0.308 nM

B12: Id_ii_S4_P4E.2_K4.1_C4.2_[C-2T]_H4.1_A4.1_F4.1_T4.2_[G10A]_[T11G] (ssRNA)
RNA: B2 RNA with G24U, C25U, C35A, C36G
  Kd: 3.49 nM

B13: Id_ii_S4_P4E.2_K4.1_C4.2_[C-2T]_H4.1_A4.1_F4.1_T4.2_[G10A]_[T11C] (ssRNA)
RNA: B2 RNA with G24U, C25U, C35A
  Kd: 0.493 nM

B14: Id_ii_S4_P4E.2_K4.1_C4.2_[C-2T]_H4.1_A4.1_F4.1_T4.2_[T11C] (ssRNA)
RNA: B2 RNA with G24U, C25U, C35G
  Kd: 0.339 nM

B15: Id_ii_S4_P4E.2_K4.1_C4.2_[C-2T]_H4.1_A4.1_F4.1_T4.2 (ssRNA)
RNA: B2 RNA with G24U, C25U, C35G, C36U
  Kd: 0.37 nM

## UCUCUUUUUAUAAUUAUCUCUU (ssRNA) [Ib_S1_P5E.1_K5.1_C5.1_H5.1_[G2T]_A5.1_[T6A]_F5.1_T5.1]
  Kd: > 2300 nM

B16: Id_ii_S4_P4E.2_K4.1_C4.2_[C-2A]_[T-1G]_H4.1_A4.1_F4.1_T4.2_[G10T]_[T11C] (ssRNA)
RNA: B2 RNA with G24A, C25G, C35U
  Kd: 2.16 nM

B17: Id_ii_S4_P4E.2_K4.1_C4.2_[C-2A]_[T-1G]_H4.1_A4.1_F4.1_T4.2_[G10A]_[T11A] (ssRNA)
RNA: B2 RNA with G24A, C25G, C35A, C36A
  Kd: 1.62 nM

B18: Id_ii_S4_P4E.2_K4.1_C4.2_[C-2A]_[T-1C]_H4.1_A4.1_F4.1_T4.2_[G10C] (ssRNA)
RNA: B2 RNA with G24A, C36U
  Kd: 1.24 nM

B19: Id_ii_S4_P4E.2_K4.1_C4.2_[C-2A]_[T-1C]_H4.1_A4.1_F4.1_T4.2_[G10T]_[T11C] (ssRNA)
RNA: B2 RNA with G24A, C35U
  Kd: 0.306 nM

B20: Id_ii_S4_P4E.2_K4.1_C4.2_[C-2A]_[T-1C]_H4.1_A4.1_F4.1_T4.2_[G10T]_[T11A] (ssRNA)
RNA: B2 RNA with G24A, C35U, C36A
  Kd: 0.625 nM

B21: Id_ii_S4_P4E.2_K4.1_C4.2_[C-2A]_[T-1A]_H4.1_A4.1_F4.1_T4.2_[G10T] (ssRNA)
RNA: B2 RNA with G24A, C25A, C35U, C36U
  Kd: 1.56 nM

B22: Id_ii_S4_P4E.2_K4.1_C4.2_[C-2A]_[T-1A]_H4.1_A4.1_F4.1_T4.2_[G10A] (ssRNA)
RNA: B2 RNA with G24A, C25A, C35A, C36U
  Kd: 1.37 nM

B23: Id_ii_S4_P4E.2_K4.1_C4.2_[C-2A]_H4.1_A4.1_F4.1_T4.2_[G10T] (ssRNA)
RNA: B2 RNA with G24A, C25U, C35U, C36U
  Kd: 0.312 nM

B24: Id_ii_S4_P4E.2_K4.1_C4.2_[C-2A]_H4.1_A4.1_F4.1_T4.2_[G10A]_[T11A] (ssRNA)
RNA: B2 RNA with G24A, C25U, C35A, C36A
  Kd: 1.35 nM

B25: Id_ii_S4_P4E.2_K4.1_C4.2_[T-1G]_H4.1_A4.1_F4.1_T4.2_[G10T] (ssRNA)
RNA: B2 RNA with G24C, C25G, C35U, C36U
  Kd: 0.196 nM

## UCUCUUUAUAUCAUUAUCUCUU (ssRNA) [Ib_S1_P5E.1_K5.1_C5.1_H5.1_[G2A]_A5.1_[T6C]_F5.1_T5.1]
  Kd: 752 nM

B26: Id_ii_S4_P4E.2_K4.1_C4.2_[T-1G]_H4.1_A4.1_F4.1_T4.2_[G10A]_[T11G] (ssRNA)
RNA: B2 RNA with G24C, C25G, C35A, C36G
  Kd: 1.39 nM
